From article PMC11262565 come the findings set out here.

The assay addresses biotinylated human IgG1 Fc protein (IG1-H8213, ACROBiosystems) (human). In words: BLI.

pKd: −log10 of the molar value.

The substance “Fc-ARM A-Z (HER2-specific affibody Z_(HER2:342) fused to a single Z domain) (designed binder)” showed a pKd of 8.11.
As for “Fc-ARM A-ZZ (HER2-specific affibody Z_(HER2:342) fused to double Z domains) (designed binder)”, the pKd is 9.55.
